Reference: paper PMC7159914

Columns and labels:
[1] = target: rotavirus (RV) A VP3, full-length recombinant (rotavirus A); test: cryo-EM structure
[2] = target: rotavirus (RV) A VP3, full-length recombinant (rotavirus A); test: crystal structure
[3] = target: rotavirus (RV) A VP3, full-length recombinant (rotavirus A); test: SEC + AUC

Measured: stoichiometry N

rotavirus (RV) A VP3, full-length recombinant (enzyme)
4: all assays above
